{"source": "patent US20080242601A1", "about": "(INSTITUTE PASTEUR, published 2008)", "molecules": {"B1": {"name": "BODIPY-Ant-NLM-DR (peptide)", "peptide": "Ac-C(BODIPYFLEthylmaleimide)RQIKIWFQNRRMKWKKLKAQADIYKARFQAERHAREK-NH2", "SMILES": "CC[C@H](C)[C@H](NC(=O)[C@H](CC(=O)O)NC(=O)[C@H](C)NC(=O)[C@H](CCC(N)=O)NC(=O)[C@H](C)NC(=O)[C@H](CCCCN)NC(=O)[C@H](CC(C)C)NC(=O)[C@H](CCCCN)NC(=O)[C@H](CCCCN)NC(=O)[C@H](Cc1c[nH]c2ccccc12)NC(=O)[C@H](CCCCN)NC(=O)[C@H](CCSC)NC(=O)[C@H](CCCNC(=N)N)NC(=O)[C@H](CCCNC(=N)N)NC(=O)[C@H](CC(N)=O)NC(=O)[C@H](CCC(N)=O)NC(=O)[C@H](Cc1ccccc1)NC(=O)[C@H](Cc1c[nH]c2ccccc12)NC(=O)[C@@H](NC(=O)[C@H](CCCCN)NC(=O)[C@@H](NC(=O)[C@H](CCC(N)=O)NC(=O)[C@H](CCCNC(=N)N)NC(=O)[C@H](CSC1CC(=O)N(CCNC(=O)CCC2=[N+]3C(=Cc4c(C)cc(C)n4[B-]3(F)F)C=C2)C1=O)NC(C)=O)[C@@H](C)CC)[C@@H](C)CC)C(=O)N[C@@H](Cc1ccc(O)cc1)C(=O)N[C@@H](CCCCN)C(=O)N[C@@H](C)C(=O)N[C@@H](CCCNC(=N)N)C(=O)N[C@@H](Cc1ccccc1)C(=O)N[C@@H](CCC(N)=O)C(=O)N[C@@H](C)C(=O)N[C@@H](CCC(=O)O)C(=O)N[C@@H](CCCNC(=N)N)C(=O)N[C@@H](Cc1c[nH]cn1)C(=O)N[C@@H](C)C(=O)N[C@@H](CCCNC(=N)N)C(=O)N[C@@H](CCC(=O)O)C(=O)N[C@@H](CCCCN)C(N)=O"}, "B2": {"name": "CC2 (WT) (peptide)", "peptide": "Ac-SKGMQLEDLRQQLQQAEEALVAKQELIDKLKEEAEQHKIV-NH2", "notes": "Synthetic peptide; Forms a trimer by gel filtration at 10 uM; also called CC2 peptide; CC2 wild type"}, "B3": {"name": "BODIPY-Ant-LZ (WT) (peptide)", "peptide": "Ac-C(BODIPYFLEthylmaleimide)RQIKIWFQNRRMKWKKLKAQADIYKADFQAERHAREKLVEKKEYLQEQLEQLQREFNKL-NH2", "notes": "Synthetic fusion peptide; also called cell permeable LZ"}, "B4": {"name": "BODIPY-TAT-NLM-DR (peptide)", "peptide": "Ac-C(BODIPYFLEthylmaleimide)YGRKKRRQRRRLKAQADIYKARFQAERHAREK-NH2", "SMILES": "CC[C@H](C)[C@H](NC(=O)[C@H](CC(=O)O)NC(=O)[C@H](C)NC(=O)[C@H](CCC(N)=O)NC(=O)[C@H](C)NC(=O)[C@H](CCCCN)NC(=O)[C@H](CC(C)C)NC(=O)[C@H](CCCNC(=N)N)NC(=O)[C@H](CCCNC(=N)N)NC(=O)[C@H](CCCNC(=N)N)NC(=O)[C@H](CCC(N)=O)NC(=O)[C@H](CCCNC(=N)N)NC(=O)[C@H](CCCNC(=N)N)NC(=O)[C@H](CCCCN)NC(=O)[C@H](CCCCN)NC(=O)[C@H](CCCNC(=N)N)NC(=O)CNC(=O)[C@H](Cc1ccc(O)cc1)NC(=O)[C@H](CSC1CC(=O)N(CCNC(=O)CCC2=[N+]3C(=Cc4c(C)cc(C)n4[B-]3(F)F)C=C2)C1=O)NC(C)=O)C(=O)N[C@@H](Cc1ccc(O)cc1)C(=O)N[C@@H](CCCCN)C(=O)N[C@@H](C)C(=O)N[C@@H](CCCNC(=N)N)C(=O)N[C@@H](Cc1ccccc1)C(=O)N[C@@H](CCC(N)=O)C(=O)N[C@@H](C)C(=O)N[C@@H](CCC(=O)O)C(=O)N[C@@H](CCCNC(=N)N)C(=O)N[C@@H](Cc1c[nH]cn1)C(=O)N[C@@H](C)C(=O)N[C@@H](CCCNC(=N)N)C(=O)N[C@@H](CCC(=O)O)C(=O)N[C@@H](CCCCN)C(N)=O"}, "B5": {"name": "BODIPY-R9-NLM-DR (peptide)", "peptide": "Ac-C(BODIPYFLEthylmaleimide)RRRRRRRRRLKAQADIYKARFQAERHAREK-NH2", "modifications": "not fully specified"}, "B6": {"name": "BODIPY-R7-NLM-DR (peptide)", "peptide": "Ac-C(BODIPYFLEthylmaleimide)RRRRRRRLKAQADIYKARFQAERHAREK-NH2", "SMILES": "CC[C@H](C)[C@H](NC(=O)[C@H](CC(=O)O)NC(=O)[C@H](C)NC(=O)[C@H](CCC(N)=O)NC(=O)[C@H](C)NC(=O)[C@H](CCCCN)NC(=O)[C@H](CC(C)C)NC(=O)[C@H](CCCNC(=N)N)NC(=O)[C@H](CCCNC(=N)N)NC(=O)[C@H](CCCNC(=N)N)NC(=O)[C@H](CCCNC(=N)N)NC(=O)[C@H](CCCNC(=N)N)NC(=O)[C@H](CCCNC(=N)N)NC(=O)[C@H](CCCNC(=N)N)NC(=O)[C@H](CSC1CC(=O)N(CCNC(=O)CCC2=[N+]3C(=Cc4c(C)cc(C)n4[B-]3(F)F)C=C2)C1=O)NC(C)=O)C(=O)N[C@@H](Cc1ccc(O)cc1)C(=O)N[C@@H](CCCCN)C(=O)N[C@@H](C)C(=O)N[C@@H](CCCNC(=N)N)C(=O)N[C@@H](Cc1ccccc1)C(=O)N[C@@H](CCC(N)=O)C(=O)N[C@@H](C)C(=O)N[C@@H](CCC(=O)O)C(=O)N[C@@H](CCCNC(=N)N)C(=O)N[C@@H](Cc1c[nH]cn1)C(=O)N[C@@H](C)C(=O)N[C@@H](CCCNC(=N)N)C(=O)N[C@@H](CCC(=O)O)C(=O)N[C@@H](CCCCN)C(N)=O"}}, "key": {"[1]": {"target": "T1, NEMO (NF-kB essential modulator), murine (murine, UniProt O88522 1-412)", "T1 chain": "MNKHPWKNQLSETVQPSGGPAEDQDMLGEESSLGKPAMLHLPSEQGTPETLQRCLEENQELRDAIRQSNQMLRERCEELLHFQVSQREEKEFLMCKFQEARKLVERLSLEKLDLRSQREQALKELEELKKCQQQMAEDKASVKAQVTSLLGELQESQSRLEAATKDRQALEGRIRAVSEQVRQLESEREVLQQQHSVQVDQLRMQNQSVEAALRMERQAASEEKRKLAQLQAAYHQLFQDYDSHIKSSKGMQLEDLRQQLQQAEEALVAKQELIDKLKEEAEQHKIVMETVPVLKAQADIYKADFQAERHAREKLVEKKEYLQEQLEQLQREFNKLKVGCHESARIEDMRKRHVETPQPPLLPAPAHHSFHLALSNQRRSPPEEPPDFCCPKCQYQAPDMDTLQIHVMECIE", "test": "cell-based or functional assay"}, "[2]": {"target": "T1, NEMO (NF-kB essential modulator), murine", "test": "cell-based or functional assay"}, "[3]": {"target": "the molecule itself", "test": "gel filtration (Superdex 75) at 10 µM, self-association", "method": "The oligomeric states of peptides were determined by filtration as described in Traincard et al., 2003. In brief, 500 μl samples were loaded on a Superdex 75 HR 10/30 column equilibrated in 50 mM Tris-HCl pH 8.0 containing 200 mM NaCl and 0.1 mM DDM, at a constant flow rate of 0.4 ml/min. The presence of the DDM detergent was added in the equilibrium buffer to minimize the adsorption in the column and to increase the peptide recovery. The column was calibrated in the same equilibrium buffer with blue dextran 2000 (void volume), dithioerythritol (total volume), bovine serum albumin (67 kDa, Rs=35.2 Å), ovalbumine (43 kDa, Rs=27.5 Å), chymotrypsinogen A (25 kDa, Rs=21.1 Å), ribonuclease A (13.7 kDa, Rs=16.4 Å), cytochrome C (12.4 kDa, Rs=17.7 Å) and aprotinin (6.5 KDa, Rs=13.5 Å).\nThe antennapedia sequence is a protein transduction domain (PTD) which adopts an alpha-helical amphiphatic structure (Prochiantz, 2000, Curr. Opin. Cell Biol.). […] To examine the effect of N-fusion of the antennapedia peptide on the oligomerization properties of the CC2 and the LZ peptides, the present inventors analyzed peptides containing or not containing the antennapedia sequence at their N-terminus by gel filtration. […]"}, "[4]": {"target": "T1, NEMO (NF-kB essential modulator), murine", "test": "cell-based or functional assay"}, "CC2 (WT)": {"target": "B2", "test": "fluorescence anisotropy, fixed BODIPY-Ant-LZ (0.1 µM) with CC2", "method": "(A) Direct titration of BODIPY-Ant-CC2 (1 μM) with CC2 by fluorescence anitropy. The concentration of CC2 was determined by amino acid analysis. Anisotropy values of BODIPY-Ant-CC2 in milliunits (mA) were plotted against an increasing concentration of the CC2 peptide. […] The two dashed lines represent a stoichiometric titration and intersect at an CC2 concentration of 16 μM. Given the 1 μM concentration of the BODIPY-Ant-CC2, this gives a complex stoechiometrie of 0.8. (B) Direct titration of BODIPY-Ant-LZ (0.1 μM with CC2 by fluorescence anitropy. The anisotropy values of the BODIPY-Ant-LZ alone (white bar) or in the presence of the CC2 peptide (30 μM, grey bar; 100 μM, black bar) are given in milliunits (mA).\nAnisotropy measurements were performed with a PTI Quantamaster fluorometer equipped with polarizers for the excitation and emission beams. This instrument uses a PMT in the L-configuration. […] Steady-state fluorescence anisotropy was expressed as millianisotropy (mA) and was calculated according to the equations: (1) A=(I_VV-GIVH)/(IVV+2GIVH); (2) G=IHV/IHH.; where A is anisotropy, G is a correction factor for wavelength-dependent distortion and I is the fluorescence intensity component (subscript referring to the vertical and horizontal positioning at the excitation and emission polarizers, respectively). […]"}}, "note": "Like-named read-outs stand apart in the source and are kept apart here. * marks the point of attachment. BODIPYFLEthylmaleimide = Cc1cc(C)n2c1C=C1C=CC(CCC(=O)NCCN3C(=O)CC(*)C3=O)=[N+]1[B-]2(F)F"}
{"molecule": "BODIPY-Ant-CC2 (WT) (peptide)", "values": [{"measurement": "IC50 of inhibition of LPS-induced NF-κB activation (β-galactosidase reporter, 70Z3-C3 cells)", "setting": "[1]", "value": 22000, "unit": "nM"}, {"measurement": "fold reduction of LPS-induced NF-κB activation at 10 µM (stringent β-galactosidase assay)", "setting": "[1]", "value": 1.7, "unit": "fold"}, {"measurement": "reduction of NF-κB activity at 20 µM after LPS stimulation of B lymphocytes", "setting": "[1]", "value": 70, "unit": "%"}]}
{"molecule": "B1", "values": [{"measurement": "IC 50 (inhibition of NF-κB activation pathway)", "setting": "[2]", "value": 1100, "unit": "nM"}]}
{"molecule": "B2", "values": [{"measurement": "binding result", "setting": "[3]", "value": "binds"}]}
{"molecule": "B3", "values": [{"measurement": "IC50 of inhibition of LPS-induced NF-κB activation (β-galactosidase reporter, 70Z3-C3 cells)", "setting": "[4]", "value": 3000, "unit": "nM"}, {"measurement": "fold reduction of LPS-induced NF-κB activation at 10 µM (stringent β-galactosidase assay)", "setting": "[4]", "value": 5.8, "unit": "fold"}, {"measurement": "binding result", "setting": "CC2 (WT)", "value": "binds"}]}
{"molecule": "B4", "values": [{"measurement": "IC 50 (inhibition of NF-κB activation pathway)", "setting": "[2]", "value": 1000, "unit": "nM"}]}
{"molecule": "B5", "values": [{"measurement": "IC 50 (inhibition of NF-κB activation pathway)", "setting": "[2]", "value": 900, "unit": "nM"}]}
{"molecule": "B6", "values": [{"measurement": "IC 50 (inhibition of NF-κB activation pathway)", "setting": "[2]", "value": 900, "unit": "nM"}]}
